The record followed here is article PMC3823801, “Structure Reveals Regulatory Mechanisms of a MaoC-Like Hydratase from Phytophthora capsici Involved in Biosynthesis of Polyhydroxyalkanoates (PHAs)” (PLoS ONE, 2013).

The data set concerns the molecule itself. As to the kind of experiment: SEC; analytical gel filtration, Superdex 75 10/300 GL, 10 mM Tris-HCl pH 8.5, 100 mM NaCl, 1 mM DTT; calibrated with BSA (66 kDa) and rabbit IgG (150 kDa). (In general: SEC sorts molecules by how far they enter the pores of the column.)

B1: MaoC Del63-88 (enzyme)
chain: MSVNVDKILNSPEATYTATYNQRDLLMYAVGIGESDLQFTYEFDEKFSAFPLYPVCLPFKGQILHGEQSVEILRPLDPSGGTLTGKTKVISFYDKGKGTLMETQTQFEDGNGPVAKLISGSFIRGLTGYEGKGRKLPARVQIPKRQPDFNDEFKTSPHQAQVYRLSGDYNSLHIDPEIAKSVGFKQPILHGLCSMGVASRALFKQFCGGDVARFKSIRVRFSSPCFPGETIQTRMWQEGSGKVLFQAVVKERGAVIVDGGEFVYTQDASARL
notes: MaoC-like hydratase, Phytophthora capsici strain SD33, full length with residues 63-88 deleted; Made from the wild-type plasmid (pET28-MaoC) with the MutanBEST kit; source: E. coli BL21 (DE3) pLysS, purified as described for the wild-type protein
With B1, the binding result is “binds”.

B2: MaoC-like hydratase from Phytophthora capsici (enzyme)
chain: MSVNVDKILNSPEATYTATYNQRDLLMYAVGIGESDLQFTYEFDEKFSAFPLYPVCLPFKGQSQDVVPFPPETISAAPDGMPSFNPAMILHGEQSVEILRPLDPSGGTLTGKTKVISFYDKGKGTLMETQTQFEDGNGPVAKLISGSFIRGLTGYEGKGRKLPARVQIPKRQPDFNDEFKTSPHQAQVYRLSGDYNSLHIDPEIAKSVGFKQPILHGLCSMGVASRALFKQFCGGDVARFKSIRVRFSSPCFPGETIQTRMWQEGSGKVLFQAVVKERGAVIVDGGEFVYTQDASARL
notes: MaoC-like hydratase, Phytophthora capsici strain SD33, full length (Met-1 to Leu-298); Cloned BamHI/EcoRI into pET28a; no step that removes the tag is described, and the purified enzymes were detected with anti-His antibody on western blots; also called wild type MaoC; native MaoC; source: E. coli BL21 (DE3) pLysS, purified (Ni-NTA, Superdex-75 gel filtration)
As usually defined, the stoichiometry N is the number of molecules, sites or subunits per partner or assembly. As to B2, the “stoichiometry N” value was 2.

B3: MaoC Del63-71 (enzyme)
chain: MSVNVDKILNSPEATYTATYNQRDLLMYAVGIGESDLQFTYEFDEKFSAFPLYPVCLPFKGQETISAAPDGMPSFNPAMILHGEQSVEILRPLDPSGGTLTGKTKVISFYDKGKGTLMETQTQFEDGNGPVAKLISGSFIRGLTGYEGKGRKLPARVQIPKRQPDFNDEFKTSPHQAQVYRLSGDYNSLHIDPEIAKSVGFKQPILHGLCSMGVASRALFKQFCGGDVARFKSIRVRFSSPCFPGETIQTRMWQEGSGKVLFQAVVKERGAVIVDGGEFVYTQDASARL
notes: MaoC-like hydratase, Phytophthora capsici strain SD33, full length with residues 63-71 deleted; Made from the wild-type plasmid (pET28-MaoC) with the MutanBEST kit; source: E. coli BL21 (DE3) pLysS, purified as described for the wild-type protein
On to B3, for which the binding result is “binds”.
